Test results: patent US20150344570A1 (published 2015)

T1: FcγRIIb (human, UniProt P31994 43-217)
T1 construct: extracellular domain; also called FcgRIIb; CD32B
T1 sequence (looked up): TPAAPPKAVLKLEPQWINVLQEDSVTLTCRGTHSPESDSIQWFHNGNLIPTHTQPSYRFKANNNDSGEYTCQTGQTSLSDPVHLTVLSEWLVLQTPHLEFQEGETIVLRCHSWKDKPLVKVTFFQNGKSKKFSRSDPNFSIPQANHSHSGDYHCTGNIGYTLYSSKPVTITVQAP

T2: FcγRIIa H (human, UniProt P12318 34-217)
T2 construct: extracellular domain; also called FcgRIIa H; 2aH; not shown: His tag at the C terminus
T2 sequence (looked up): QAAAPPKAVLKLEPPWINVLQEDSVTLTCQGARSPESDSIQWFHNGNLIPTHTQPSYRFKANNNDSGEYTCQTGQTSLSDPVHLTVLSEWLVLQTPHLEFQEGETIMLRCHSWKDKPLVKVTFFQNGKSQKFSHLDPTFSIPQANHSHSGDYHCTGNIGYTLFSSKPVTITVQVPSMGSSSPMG

T3: FcγRIIb (human, UniProt P31994 43-217)
T3 construct: extracellular domain; also called FcgRIIb; 2b; not shown: His tag at the C terminus
T3 sequence (looked up): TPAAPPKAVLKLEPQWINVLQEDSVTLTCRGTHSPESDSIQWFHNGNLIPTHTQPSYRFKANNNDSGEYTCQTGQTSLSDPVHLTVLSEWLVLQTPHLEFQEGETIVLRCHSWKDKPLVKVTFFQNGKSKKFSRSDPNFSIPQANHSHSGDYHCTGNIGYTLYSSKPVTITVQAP


Tests used:
FcγRIa [1] = target: T4, FcγRIa (human, UniProt P12314 16-292); assay: ratio of He/Con_1a to He/Con_2b (FcγRIa over FcγRIIb), SPR
T4 construct: extracellular domain; also called FcgRI; CD64
Summary of the method: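 Heterodimerized antibodies carrying an alteration in one H chain were captured onto antigen-peptide chips and probed with each activating or inhibitory FcγR by SPR (Biacore T100, 25 °C, HBS-EP+).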

FcγRIIb [2] = target: T1, FcγRIIb; assay: SPR (Biacore), captured antibody, soluble FcγR; relative to GpH7-A5/GpH7-B3/GpL16-k0 = 100
FcγRIa [3] = target: T4, FcγRIa; assay: as above
FcγRIIa H [4] = target: T2, FcγRIIa H; assay: SPR (Biacore); He/Con_2aH divided by He/Con_2b (FcγRIIa H versus FcγRIIb)
Protocol: (§1) The heterodimerized antibodies He Abs in which one of the H chains was introduced with an alteration were assayed for their binding activities to each activating FcγR and inhibitory FcγR according to the method described in Example 4. […] The activating FcγRs in FIGS. 26, 27, 28, and 29 are FcγRIa, FcγRIIa (R), FcγRIIa (H), and FcγRIIIa, respectively.
(§2) Analysis of interaction between objective antibody and the FcγR was carried out using Biacore T100 (GE Healthcare). HBS-EP+ (GE Healthcare) was used as the running buffer, and the measurement temperature was set to 25° C. Chips produced by immobilizing the antigen peptide by the amine coupling method to a Series S Sencor Chip CM5 (GE Healthcare), or alternatively, chips produced by allowing preliminarily biotinylated antigen peptides to interact with and immobilize onto a Series S Sensor Chip SA (certified) (GE Healthcare) were used. Antibodies of interest were captured onto an antigen peptide-immobilized chip, and allowed to interact to each FcγR diluted with running buffer. To regenerate and repeatedly use the chip, the antibodies captured on the chip were washed off by reacting 10 mM glycine-HCl, pH 1.5.

FcγRIIa H [5] = target: T2, FcγRIIa H; assay: SPR (Biacore), FcγR passed over captured antibody; binding amount as % of control GpH7-A5/GpH7-B3/GpL16-k0 (=100)
Protocol: as §1, §2

FcγRIIb [6] = target: T3, FcγRIIb; assay: as above
Protocol: as §1, §2

T4 sequence (P12314 16-292): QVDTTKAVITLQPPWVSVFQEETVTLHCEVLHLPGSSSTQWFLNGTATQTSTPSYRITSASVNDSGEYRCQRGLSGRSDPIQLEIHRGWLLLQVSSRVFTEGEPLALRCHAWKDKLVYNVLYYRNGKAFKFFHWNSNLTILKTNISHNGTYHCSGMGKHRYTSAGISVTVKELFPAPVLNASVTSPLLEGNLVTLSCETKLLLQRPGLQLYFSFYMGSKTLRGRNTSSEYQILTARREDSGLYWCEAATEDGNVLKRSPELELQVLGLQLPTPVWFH

Row | Binder | He_1a/2b (Ia/IIb) (FcγRIa [1]) | He/Con_2b (FcγRIIb [2]) | He/Con_1a (FcγRIa [3]) | He_2aH/2b (IIaH/IIb) (FcγRIIa H [4]) [ratio] | He/Con_2aH (FcγRIIa H [5]) | He/Con_2b (FcγRIIb [6])
1 | GpH7-A5/GpH7-B3 variant P331_01G/GpL16-k0 (antibody, human IgG1, kappa, He Ab; mutation in the GpH7-B3 chain only; also called He Ab) heavy 1: not shown heavy 2: not shown light: DIVMTQSPLSLPVTPGEPASISCQASESLVHSNRNTYLHWYLQKPGQSPQLLIYKVSNRFSGVPDRFSGSGSGTDFTLKISRVEAEDVGVYYCSQNTHVPPTFGQGTKVEIERTVAAPSVFIFPPSDEQLKSGTASVVCLLNNFYPREAKVQWKVDNALQSGNSQESVTEQDSKDSTYSLSSTLTLSKADYEKHKVYACEVTHQGLSSPVTKSFNRGEC | 1.88 | 45.4 % of control | 85.3 % of control |  |  | 
2 | GpH7-A5/GpH7-B3 variant P329_01G/GpL16-k0 (antibody, human IgG1, kappa, He Ab: mutation in the GpH7-B3 H chain only) heavy 1: not shown heavy 2: not shown light: DIVMTQSPLSLPVTPGEPASISCQASESLVHSNRNTYLHWYLQKPGQSPQLLIYKVSNRFSGVPDRFSGSGSGTDFTLKISRVEAEDVGVYYCSQNTHVPPTFGQGTKVEIERTVAAPSVFIFPPSDEQLKSGTASVVCLLNNFYPREAKVQWKVDNALQSGNSQESVTEQDSKDSTYSLSSTLTLSKADYEKHKVYACEVTHQGLSSPVTKSFNRGEC |  |  |  | 1.32 | 54.9 relative, control = 100 | 41.7 relative, control = 100
3 | GpH7-A5/GpH7-B3 variant A327_12R/GpL16-k0 (antibody, human IgG1, kappa, He Ab: mutation in the GpH7-B3 H chain only) heavy 1: not shown heavy 2: not shown light: DIVMTQSPLSLPVTPGEPASISCQASESLVHSNRNTYLHWYLQKPGQSPQLLIYKVSNRFSGVPDRFSGSGSGTDFTLKISRVEAEDVGVYYCSQNTHVPPTFGQGTKVEIERTVAAPSVFIFPPSDEQLKSGTASVVCLLNNFYPREAKVQWKVDNALQSGNSQESVTEQDSKDSTYSLSSTLTLSKADYEKHKVYACEVTHQGLSSPVTKSFNRGEC |  |  |  | 1.26 | 11.3 relative, control = 100 | 
4 | GpH7-A5/GpH7-B3 variant A327_19Q/GpL16-k0 (antibody, human IgG1, kappa, He Ab: mutation in the GpH7-B3 H chain only) heavy 1: not shown heavy 2: not shown light: DIVMTQSPLSLPVTPGEPASISCQASESLVHSNRNTYLHWYLQKPGQSPQLLIYKVSNRFSGVPDRFSGSGSGTDFTLKISRVEAEDVGVYYCSQNTHVPPTFGQGTKVEIERTVAAPSVFIFPPSDEQLKSGTASVVCLLNNFYPREAKVQWKVDNALQSGNSQESVTEQDSKDSTYSLSSTLTLSKADYEKHKVYACEVTHQGLSSPVTKSFNRGEC |  |  |  | 1.24 | 67.3 relative, control = 100 | 54.2 relative, control = 100
5 | GpH7-A5/GpH7-B3 variant L328_12R/GpL16-k0 (antibody, human IgG1, kappa, He Ab: mutation in the GpH7-B3 H chain only) heavy 1: not shown heavy 2: not shown light: DIVMTQSPLSLPVTPGEPASISCQASESLVHSNRNTYLHWYLQKPGQSPQLLIYKVSNRFSGVPDRFSGSGSGTDFTLKISRVEAEDVGVYYCSQNTHVPPTFGQGTKVEIERTVAAPSVFIFPPSDEQLKSGTASVVCLLNNFYPREAKVQWKVDNALQSGNSQESVTEQDSKDSTYSLSSTLTLSKADYEKHKVYACEVTHQGLSSPVTKSFNRGEC |  |  |  | 4.6 | 42.5 relative, control = 100 | 
6 | GpH7-A5/GpH7-B3 variant L328_11K/GpL16-k0 (antibody, human IgG1, kappa, He Ab: mutation in the GpH7-B3 H chain only) heavy 1: not shown heavy 2: not shown light: DIVMTQSPLSLPVTPGEPASISCQASESLVHSNRNTYLHWYLQKPGQSPQLLIYKVSNRFSGVPDRFSGSGSGTDFTLKISRVEAEDVGVYYCSQNTHVPPTFGQGTKVEIERTVAAPSVFIFPPSDEQLKSGTASVVCLLNNFYPREAKVQWKVDNALQSGNSQESVTEQDSKDSTYSLSSTLTLSKADYEKHKVYACEVTHQGLSSPVTKSFNRGEC |  |  |  | 4.27 | 32.2 relative, control = 100 | 
7 | GpH7-A5/GpH7-B3 variant A330_12R/GpL16-k0 (antibody, human IgG1, kappa, He Ab: mutation in the GpH7-B3 H chain only) heavy 1: not shown heavy 2: not shown light: DIVMTQSPLSLPVTPGEPASISCQASESLVHSNRNTYLHWYLQKPGQSPQLLIYKVSNRFSGVPDRFSGSGSGTDFTLKISRVEAEDVGVYYCSQNTHVPPTFGQGTKVEIERTVAAPSVFIFPPSDEQLKSGTASVVCLLNNFYPREAKVQWKVDNALQSGNSQESVTEQDSKDSTYSLSSTLTLSKADYEKHKVYACEVTHQGLSSPVTKSFNRGEC |  |  |  | 1.27 | 108 relative, control = 100 | 84.8 relative, control = 100
8 | GpH7-A5/GpH7-B3 variant A327_04F/GpL16-k0 (antibody, human IgG1, kappa, He Ab: mutation in the GpH7-B3 H chain only) heavy 1: not shown heavy 2: not shown light: DIVMTQSPLSLPVTPGEPASISCQASESLVHSNRNTYLHWYLQKPGQSPQLLIYKVSNRFSGVPDRFSGSGSGTDFTLKISRVEAEDVGVYYCSQNTHVPPTFGQGTKVEIERTVAAPSVFIFPPSDEQLKSGTASVVCLLNNFYPREAKVQWKVDNALQSGNSQESVTEQDSKDSTYSLSSTLTLSKADYEKHKVYACEVTHQGLSSPVTKSFNRGEC |  |  |  | 1.32 | 84.4 relative, control = 100 | 63.7 relative, control = 100
9 | GpH7-A5/GpH7-B3 variant A330_08L/GpL16-k0 (antibody, human IgG1, kappa, He Ab: A330L (EU numbering) in the GpH7-B3 H chain only; also called GpH7-A5/GpH7-B3-20-08L/GpL16-k0) heavy 1: not shown heavy 2: not shown light: DIVMTQSPLSLPVTPGEPASISCQASESLVHSNRNTYLHWYLQKPGQSPQLLIYKVSNRFSGVPDRFSGSGSGTDFTLKISRVEAEDVGVYYCSQNTHVPPTFGQGTKVEIERTVAAPSVFIFPPSDEQLKSGTASVVCLLNNFYPREAKVQWKVDNALQSGNSQESVTEQDSKDSTYSLSSTLTLSKADYEKHKVYACEVTHQGLSSPVTKSFNRGEC |  |  |  | 1.24 | 87.6 relative, control = 100 | 70.5 relative, control = 100
10 | GpH7-A5/GpH7-B3 variant A327_06M/GpL16-k0 (antibody, human IgG1, kappa, He Ab: mutation in the GpH7-B3 H chain only) heavy 1: not shown heavy 2: not shown light: DIVMTQSPLSLPVTPGEPASISCQASESLVHSNRNTYLHWYLQKPGQSPQLLIYKVSNRFSGVPDRFSGSGSGTDFTLKISRVEAEDVGVYYCSQNTHVPPTFGQGTKVEIERTVAAPSVFIFPPSDEQLKSGTASVVCLLNNFYPREAKVQWKVDNALQSGNSQESVTEQDSKDSTYSLSSTLTLSKADYEKHKVYACEVTHQGLSSPVTKSFNRGEC |  |  |  | 1.27 | 75.5 relative, control = 100 | 59.5 relative, control = 100
11 | GpH7-A5/GpH7-B3 variant A330_03V/GpL16-k0 (antibody, human IgG1, kappa, He Ab: mutation in the GpH7-B3 H chain only) heavy 1: not shown heavy 2: not shown light: DIVMTQSPLSLPVTPGEPASISCQASESLVHSNRNTYLHWYLQKPGQSPQLLIYKVSNRFSGVPDRFSGSGSGTDFTLKISRVEAEDVGVYYCSQNTHVPPTFGQGTKVEIERTVAAPSVFIFPPSDEQLKSGTASVVCLLNNFYPREAKVQWKVDNALQSGNSQESVTEQDSKDSTYSLSSTLTLSKADYEKHKVYACEVTHQGLSSPVTKSFNRGEC |  |  |  | 1.52 | 79.7 relative, control = 100 | 52.4 relative, control = 100
12 | GpH7-A5/GpH7-B3 variant A330_07I/GpL16-k0 (antibody, human IgG1, kappa, He Ab: mutation in the GpH7-B3 H chain only) heavy 1: not shown heavy 2: not shown light: DIVMTQSPLSLPVTPGEPASISCQASESLVHSNRNTYLHWYLQKPGQSPQLLIYKVSNRFSGVPDRFSGSGSGTDFTLKISRVEAEDVGVYYCSQNTHVPPTFGQGTKVEIERTVAAPSVFIFPPSDEQLKSGTASVVCLLNNFYPREAKVQWKVDNALQSGNSQESVTEQDSKDSTYSLSSTLTLSKADYEKHKVYACEVTHQGLSSPVTKSFNRGEC |  |  |  | 1.3 | 87.3 relative, control = 100 | 67.1 relative, control = 100
13 | GpH7-A5/GpH7-B3 variant T335_11K/GpL16-k0 (antibody, human IgG1, kappa, He Ab; mutation in the GpH7-B3 chain only; also called He Ab) heavy 1: not shown heavy 2: not shown light: DIVMTQSPLSLPVTPGEPASISCQASESLVHSNRNTYLHWYLQKPGQSPQLLIYKVSNRFSGVPDRFSGSGSGTDFTLKISRVEAEDVGVYYCSQNTHVPPTFGQGTKVEIERTVAAPSVFIFPPSDEQLKSGTASVVCLLNNFYPREAKVQWKVDNALQSGNSQESVTEQDSKDSTYSLSSTLTLSKADYEKHKVYACEVTHQGLSSPVTKSFNRGEC | 1.22 | 91 % of control | 111 % of control |  |  | 
14 | GpH7-A5/GpH7-B3 variant T335_12R/GpL16-k0 (antibody, human IgG1, kappa, He Ab; mutation in the GpH7-B3 chain only; also called He Ab) heavy 1: not shown heavy 2: not shown light: DIVMTQSPLSLPVTPGEPASISCQASESLVHSNRNTYLHWYLQKPGQSPQLLIYKVSNRFSGVPDRFSGSGSGTDFTLKISRVEAEDVGVYYCSQNTHVPPTFGQGTKVEIERTVAAPSVFIFPPSDEQLKSGTASVVCLLNNFYPREAKVQWKVDNALQSGNSQESVTEQDSKDSTYSLSSTLTLSKADYEKHKVYACEVTHQGLSSPVTKSFNRGEC | 1.23 | 91.9 % of control | 113 % of control |  |  | 
